Values of other authors as cited in article PMC2996873.

Target: RANTES (Homo sapiens) (UniProt P13501)
Chain of UniProt P13501 (P13501 27-91): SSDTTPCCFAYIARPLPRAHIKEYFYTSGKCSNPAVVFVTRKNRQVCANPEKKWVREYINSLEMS

CCR1 (from UniProt P32246)
Kd: 460 nM
